Results from patent US20260041733A1, “COMBINATION FOR USE IN OPHTHALMOLOGY” (Dompe' farmaceutici SPA, priority 2022, published 2026).

Key:
male Sprague-Dawley rats = test: Eye wiping test (ocular discomfort after ocular administration); type: in vivo; conditions: 3.5 μg/ml sesamin with 20 μg/ml rhNGF in Vehicle 2
Description: An eye wiping test was carried out to evaluate ocular discomfort induced by ocular administration of rhNGF alone or in combination with Sesamin.
The experiments were performed on male Sprague-Dawley rats (300-320 g), Charles River, Italy) housed in the animal care facility of the Department of Pharmacy, University of Naples. Food and water were available ad libitum.
Rats were divided in 4 experimental groups:
Animals were treated with 20 μg/ml of rhNGF in Vehicle 1 (n=8);
Animals were treated with 20 μg/ml of rhNGF and 3.5 μg/ml sesamin in Vehicle 2 (n=8) All compositions tested were prepared immediately before use from lyophilized placebo or rhNGF reconstituted in a volume of 1 mL of the vehicle.
The treatments described above were administered as eye drops 1 time per day, in a volume of 10 μL. Following the application, the eye wiping test was performed.
Animals were placed on a 50×50 cm table for 10 min habituation period. 10 μL of solutions were applied into the left eye of animals and the number of eye wipes was counted for 30 min.
All data are presented as the mean±SEM. Analysis of data were conducted using GraphPad Prism 8. Statistical analysis was performed by two-way ANOVA followed by Tukey's test for multiple comparisons, as appropriate. Statistical significance was set at *p<0.05.

[1] = tested on: Dorsal Root Ganglia (DRG) neurons; test: Levels of autophagy pathway proteins (Western blot) in F11 cells differentiated into DRGs; type: cell-based; conditions: 24 h
Description: The effect of NGF on autophagy in the presence and absence of sesamin was assessed on Dorsal Root Ganglia (DRG) neurons, involved in the development of NGF sensory side effects, by analysing the impact of the different treatments on the levels of the above proteins involved in autophagy pathway. F11 cells were cultured in Dulbecco's modified Eagle's medium (DMEM, Cat #D6546; Sigma-Aldrich, St. Louis, MO, USA), with 10% fetal bovine serum, 2 mM glutamine (Sigma-Aldrich, USA). Cells were incubated at 37° C. in a humidified atmosphere with 5% CO2. Cells were then seeded at 7000 cells/cm^2 and were maintained in a low serum medium for almost 2 weeks to induce differentiation into DRGs. The complete composition of the low serum medium was: DMEM supplemented 2 mM glutamine, 1% FBS (Sigma-Aldrich, St. Louis, MO, USA). The medium was replaced every 2 days. Immunofluorescence was used to confirm cell differentiation (data not shown). F11 cells maintained in 10% FBS medium were used as control (control, undifferentiated). Morphological and functional analyses were performed after two weeks of treatment with low serum, at complete differentiation of the cells. The undifferentiated control cells underwent the same analysis at 7 days to avoid dramatic cell death due to confluence. The fully differentiated cells were treated with 1 μM rhNGF alone or in combination with 30 nM Sesamin, for 24 h. Control and treated cells were collected and lysed in ice-cold RIPA buffer (Thermo Scientific, USA) with freshly added protease and phosphatase inhibitors. Protein lysates (30 μg) were separated on 4%-12% precast gel using MOPS or MES buffers (Thermo Scientific, USA) depending on the size of the proteins of interest. Then proteins were electroblotted on polyvinyldifluoride membrane (PVDF; Sigma, St Loius, USA) and nonspecific binding sites were blocked in Blocking buffer (Thermo Scientific) for 15 minutes at RT. Afterward, membranes were incubated overnight at 4° C. with the following primary antibodies, diluted in Blocking buffer: rabbit anti-Atg5 1:1000 (Abcam, ab228668, UK), rabbit anti-LC3 1:2000 (Abcam, ab192890, UK), rabbit anti-Beclin 1:2000 (Abcam, ab207612, UK), rabbit anti-P62 1:500 (Abcam, ab91526, UK), rabbit anti-vinculin 1:1000 (Abcam, ab219649, UK) and HRP-conjugated Actin 1:1000 (Cell Signaling, #5125, USA). As secondary antibodies, peroxidase-conjugated anti-rabbit IgG 1:10000 (Abcam, UK) were used. Immunoreactive bands were visualized by ECL (Thermo Scientific, USA), according to the manufacturer's instructions. The relative optical densities of the immunoreactive bands were determined and normalized with respect to those of the anti-Vinculin or anti-Actin (depending on the molecular weight of the analyzed protein and the gel/buffer used), using ImageJ software. The phosphorylated forms were normalized upon the total form.

patients = conditions: cited from earlier work
[2] = In-use stability of rhNGF lyophilized formulation (Formulation 6) after reconstitution: oxidized NGF impurity; type: physicochemical
Description: An in-use stability study of said rhNGF lyophilized formulation (according to Formulation 6) after reconstitution with sesamin-containing reconstitution solvent B or with WFI was carried out as follows.
The tests were performed on said lyophilized formulation reconstituted in solvent B or in WFI, stored at different temperatures (+2/+8° C. or 25° C.-60% Relative Humidity), over 28 days, to verify the possible impurity formation in rhNGF reconstituted liquid formulations, in glass vials.
The impurity was determined as the percentage (w/w) of oxidized NGF in respect of the total NGF comprised in the reconstituted liquid formulation.

[3] = topical administration, 200 μg/mL NGF; cited from earlier work
[4] = differentiated F11 cells, 1 μM rhNGF alone, vs control (FIG. 1)

## c1cc2c(cc1[C@H]1OC[C@H]3[C@@H]1CO[C@@H]3c1ccc3c(c1)OCO3)OCO2 [sesamin, 5,5′-[(1S,3aR,4S,6aR)-Tetrahydro-1H,3H-furo[3,4-c]furan-1,4-diyl]bis(2H-1,3-benzodioxole)]
Male Sprague-Dawley rats
  eye discomfort induced by rhNGF: can relieve the eye discomfort
[1]; 30 nM Sesamin combined with 1 μM rhNGF, vs NGF alone
  autophagy: significantly reduced

## rhNGF: recombinant human nerve growth factor, amino acid sequence SEQ ID NO. 1 and/or SEQ ID NO. 2
patients; clinical trials or approved indications, mild and transient
  primary side effect reported by patients after topical ocular administration: eye discomfort
patients; clinical trials
  safety of topical administration on the ocular surface: safe
[2]; reconstituted with WFI, +2/+8° C., day 0
  NGF oxidation product %: 4.00%
[2]; reconstituted with WFI, +2/+8° C., day 28
  NGF oxidation product %: 4.86%
[2]; reconstituted with WFI, +25° C./60% Relative Humidity, day 0
  NGF oxidation product %: 4.00%
[2]; reconstituted with WFI, +25° C./60% Relative Humidity, day 28
  NGF oxidation product %: 6.48%
[2]; reconstituted with reconstitution solvent B (sesamin 1.5 μg/mL), +2/+8° C., day 0
  NGF oxidation product %: 3.11%
[2]; reconstituted with reconstitution solvent B (sesamin 1.5 μg/mL), +2/+8° C., day 28
  NGF oxidation product %: 4.21%
[2]; reconstituted with reconstitution solvent B (sesamin 1.5 μg/mL), +25° C./60% Relative Humidity, day 0
  NGF oxidation product %: 3.11%
[2]; reconstituted with reconstitution solvent B (sesamin 1.5 μg/mL), +25° C./60% Relative Humidity, day 28
  NGF oxidation product %: 5.06%
[1]; [4]
  level of P62 (autophagy-specific substrate): decreased
  levels of Atg5: significantly increased
  levels of Beclin: significantly increased
  levels of LC3-I: increased levels
  levels of LC3-II: increased levels
[3]
  levels of the protein in all ocular tissues, included the retina and optic nerve: high levels
  time of peak increase in ocular tissues after administration: 6 h
